Usually stoichiometry N stands for the number of molecules, sites or subunits per partner or assembly.

One test deals with phosphorylated COPY^o2. Kind of test: stopped-flow fluorescence (sensitized emission of the FRET sensor); COPY^o2 or phosphorylated COPY^o2 constant at 200 nM, tubulin titrated; dissociation at 200 nM COPY^o2 and 4 µM tubulin by displacement with 60 µM unlabeled stathmin; 25 °C; 80 mM PIPES pH 6.8, 75 mM KCl, 2 mM MgCl2, 20 mM β-mercaptoethanol, 60 µM GTP.
Test [1] addresses COPY^o2 (Atto532-stathmin-Atto647N). The description is as above.

Take “tubulin (αβ-heterodimer) (from UniProt P02550 1-451; P02554 1-445) (complex)”: in the test with phosphorylated COPY^o2, the KD, high affinity site is 610 µM; the KD, low-affinity site is 12 µM; the koff, high affinity site was 8 s⁻¹; the koff, low-affinity site is 2.3 s⁻¹. Moreover, in the test with phosphorylated COPY^o2, the kon, high affinity site worked out at 12800 M⁻¹ s⁻¹ and the kon, low-affinity site was determined as 170000 M⁻¹ s⁻¹. In test [1], the KD, high affinity site came to 0.03 µM; the KD, low-affinity site stood at 2 µM; the koff, high affinity site amounted to 0.048 s⁻¹; the koff, low-affinity site turned out to be 1.86 s⁻¹. In test [1], the kon, high affinity site worked out at 1.6e+06 M⁻¹ s⁻¹; the kon, low-affinity site was 900000 M⁻¹ s⁻¹; the stoichiometry N was 2.

The values above are taken from article PMC7943604.
